Assay results as given in patent US9783615B2, “Combination treatment of cancer” (UNIVERSITÉ DE LIÈGE, priority 2012, dated 2017).
Where a chain is given by its changes, count along the chain named. “Also recorded” adds a separate entry of the source.

Assays:
[1] = tested on: MDA-MB231 cells expressing MT4-MMP; experiment: In vitro 3D Matrigel proliferation assay with DNA quantification; assay type: cell-based, human; conditions: 7 days; for effect on MT4-MMP-mediated mitogenic effect (cell proliferation, DNA content): 3D Matrigel matrix, signaling pathway inhibitors added to the culture medium
Procedure: The medium was changed every three days.
Inhibition of MT4-MMP-dependent mitogenic effect of cancer cells was performed in 3D culture matrix. […] The medium was changed every three days.

[2] = tested on: MDA-MB 231 control (CTR) cells; conditions: 3D Matrigel matrix, 7 days
Procedure: Matrigel® mixed with an equal volume of culture medium was coated onto 24-well plates (300 μl/plate). Cells (104) suspended in 250 μl of medium were mixed with the same volume of cold Matrigel® and seeded on the previously coated Matrigel® layer. In some assays, growth factor-free Matrigel® was used (BD, Bioscience). For signaling pathway inhibition in the 3D culture model, cells were incubated in Matrigel® matrix and 24 h later several inhibitors were added to the culture medium at the indicated concentrations:
SB203580, Genistein, U0126, Wortmannin, PP2, SP600125, AG538 (Sigma), PD0332991 (Axon Medchem, Groningen, The Nederlands), MDL-12, GF109203x, AG1478 (Calbiochem, Gibbstown, N.J.). The medium was changed every three days. After 7 days, cells were recovered from 3D cultures upon treatment with 500 μl of Dispase (BD, Bioscience) for 2 h at 37° C. After two washes in PBS, cell pellet was diluted in PBS (1 ml) and sonicated.

[3] = biological target: T1, recombinant catalytic domain of MT4-MMP (MT4CAT) (Homo sapiens, UniProt Q9ULZ9); experiment: Inhibition of MT4-MMP enzymatic activity: cleavage of quenched fluorogenic peptide substrate (TACE substrate M-2255); assay type: biochemical; conditions: scFV clones at 14 nM; substrate 30 μM
T1 construct: Enzymatic activity of the recombinant catalytic domain of MT4-MMP (MT4CAT) was monitored
T1 sequence (Q9ULZ9 126-295 limits assumed): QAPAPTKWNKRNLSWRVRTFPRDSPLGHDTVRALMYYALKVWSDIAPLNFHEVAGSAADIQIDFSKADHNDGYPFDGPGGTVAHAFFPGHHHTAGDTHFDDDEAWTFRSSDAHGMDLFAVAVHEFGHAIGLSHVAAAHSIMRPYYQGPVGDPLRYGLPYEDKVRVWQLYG
Procedure: Inhibition of enzymatic activity of MT4-MMP was quantified by measuring the cleavage of quenched fluorogenic peptide substrate by the recombinant catalytic domain of MT4-MMP (MT4-CAT) in the presence or absence of MT4-MMP blocking antibodies (scFV). MT4-CAT (4.5 μM) was pre-incubated with MT4-MMP blocking antibodies (14 nM) for 30 min at 4° C. in buffer containing (50 mM Tris-HCl (pH 7.4); 5 mM CaCl2; ZnCl2 1 μM; 0.005%, Brij, 2% DMSO) before incubation with 30 μM of the fluorogenic substrate (pro-tumor necrosis factor-α converting enzyme (TACE) fluorogenic peptide substrate; Mca-(endo-1a-Dap(Dnp))-TNF-α (−5 to +6) amide (human), M-2255, Bachem AG, Switzerland).
Neutralizing capacity of antibodies. The enzymatic activity of the recombinant catalytic domain of MT4-MMP (MT4CAT) was monitored by the cleavage of quenched fluorogenic peptide substrate pro-tumor necrosis factor-α converting enzyme (TACE) (M-2255, BACHEM) and using Luminescence spectrometer (SPECTRA MAX; GIMINI). […] The cleavage of quenched fluorogenic peptide was monitored by measuring relative fluorescence units (RFU) during the incubation time (seconds) in the absence of inhibitor (MTCAT+No inhibitor) or in the presence of BB94 (20 μM) or of the scFV clones (14 nM). […]

MMP2 = experiment: Antibody specificity by Western blot; assay type: binding
[4] = biological target: T2, MT4-MMP inactivated by mutation in its catalytic site (E249A) (Homo sapiens, UniProt Q9ULZ9, E249A); experiment: Antibody specificity by Western blot; assay type: binding; conditions: scFV 1 μg/ml
T2 sequence (Q9ULZ9 126-565 E249A): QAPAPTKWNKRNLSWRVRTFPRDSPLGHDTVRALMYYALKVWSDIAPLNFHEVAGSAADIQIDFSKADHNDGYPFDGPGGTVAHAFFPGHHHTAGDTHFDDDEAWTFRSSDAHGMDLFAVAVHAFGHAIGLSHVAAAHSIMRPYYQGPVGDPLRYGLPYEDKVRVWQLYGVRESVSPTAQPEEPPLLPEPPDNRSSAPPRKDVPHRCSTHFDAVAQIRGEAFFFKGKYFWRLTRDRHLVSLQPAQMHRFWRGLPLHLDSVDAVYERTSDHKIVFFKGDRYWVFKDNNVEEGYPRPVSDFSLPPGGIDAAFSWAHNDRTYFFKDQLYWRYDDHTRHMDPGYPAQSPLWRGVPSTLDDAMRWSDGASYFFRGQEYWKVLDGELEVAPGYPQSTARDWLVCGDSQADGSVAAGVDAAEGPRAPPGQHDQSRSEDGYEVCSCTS
Procedure: (§1) In detail, antibody specificity was assessed by Western blot. Recombinant MT4-MMP (1 μg) was incubated with purified scFV clones (1 μg/ml) that contain a myc tag. Membranes were first incubated with a monoclonal mouse anti-myc antibody (clone 9E10, Sigma M5546) (1/1000) and then with HRP conjugated anti-mouse antibody (FIG. 14 A).

[5] = biological target: T3, active wild type recombinant MT4-MMP (Homo sapiens, UniProt Q9ULZ9); experiment: Antibody specificity by Western blot; assay type: binding; conditions: scFV 1 μg/ml
T3 construct: made in house
T3 sequence (Q9ULZ9 126-565): T2 sequence (Q9ULZ9 126-565 E249A) with A124E
Procedure: as §1

MT1-MMP (MMP14) = biological target: T4, MT1-MMP (MMP14) (Homo sapiens, UniProt P50281); experiment: Antibody specificity by Western blot; assay type: binding
T4 construct: but not to MT1-MMP, MT3-MMP and MMP 2 catalytic domains

[6] = biological target: T5, recombinant MT4-CAT protein (Homo sapiens, UniProt Q9ULZ9); experiment: Antibody affinity on immobilized protein in 96 well-plates (absorbance at 450 nm); assay type: binding; conditions: 0-3 μg of MT4-CAT per well
T5 construct: Enzymatic activity of the recombinant catalytic domain of MT4-MMP (MT4CAT) was monitored
T5 sequence (Q9ULZ9 126-295 limits assumed): T1 sequence (Q9ULZ9 126-295 limits assumed)
Procedure: For determining antibody affinity recombinant MT4-CAT protein and BSA (background) was immobilized on 96 well-plates [0-3 μg of MT4-CAT in 15 mM Na-bicarbonate (pH 9.6)/well] for 18 h, at +4° C. Non-specific blockage was carried out by incubation of 3% (w/v) BSA/PBS, 0.01% (v/v) Tween-20, for 1 h, at +4° C. The detection of the bound antibody was carried out with 1:2000 diluted mouse anti-myc antibody (clone 9E10, Sigma M5546) incubated for 1 h, at room temperature, followed by 15 min incubation with HRP-conjugated anti-mouse antibody. After adding TMB substrate, the absorbance was measured at 450 nm Multiskan FC (Thermo Scientific, Rockford, USA).

MT3-MMP (MMP16) = biological target: T6, MT3-MMP (MMP16) (Homo sapiens, UniProt P51512); experiment: Antibody specificity by Western blot; assay type: binding
T6 construct: but not to MT1-MMP, MT3-MMP and MMP 2 catalytic domains
T6 sequence (P51512 120-291 limits assumed, species assumed): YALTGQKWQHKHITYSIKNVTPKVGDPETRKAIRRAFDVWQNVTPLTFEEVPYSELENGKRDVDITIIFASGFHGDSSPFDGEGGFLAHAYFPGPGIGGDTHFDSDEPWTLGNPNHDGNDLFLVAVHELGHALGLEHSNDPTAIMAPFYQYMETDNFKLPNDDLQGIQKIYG

[7] = biological target: T7, inactive mutated form of MT4-MMP (E249A) (Homo sapiens, UniProt Q9ULZ9, E249A); experiment: Antibody specificity by ELISA; assay type: binding
T7 sequence (Q9ULZ9 126-565 E249A): T2 sequence (Q9ULZ9 126-565 E249A)
Text: (§2) The specificity of K4H7 antibody evaluated by ELISA. […] BSA (column 2) and the absence of protein (column 1: blank) were used as control.

[8] = biological target: T8, recombinant wild-type MT4-MMP (Homo sapiens, UniProt Q9ULZ9); experiment: Antibody specificity by ELISA; assay type: binding; conditions: 3 μg protein
T8 construct: made in house
T8 sequence (Q9ULZ9 126-565): T2 sequence (Q9ULZ9 126-565 E249A) with A124E
Text: as §2

N#C/C(=C\c1ccc(O)c(O)c1)C(=O)c1ccc(O)c(O)c1 [AG538]
effect on MT4-MMP-mediated mitogenic effect (cell proliferation, DNA content) [1]: No change

COc1cc2ncnc(Nc3cccc(Cl)c3)c2cc1OC [AG1478]
effect on MT4-MMP-mediated mitogenic effect (cell proliferation, DNA content) [1]: significantly reduced

CC(=O)c1c(C)c2cnc(Nc3ccc(N4CCNCC4)cn3)nc2n(C2CCCC2)c1=O [PD0332991]
effect on MT4-MMP-mediated mitogenic effect (cell proliferation, DNA content) [1]: inhibited

CC(C)(C)n1nc(-c2ccc(Cl)cc2)c2c(N)ncnc21 [PP2, 4-amino-5-(4-chlorophenyl)-7-(t-butyl)pyrazol[3,4-d]pyrimidine]
effect on MT4-MMP-mediated mitogenic effect (cell proliferation, DNA content) [1]: No change

N#CC(=C(/N)Sc1ccccc1N)/C(C#N)=C(\N)Sc1ccccc1N [U0126]
effect on MT4-MMP-mediated mitogenic effect (cell proliferation, DNA content) [1]: markedly inverted the proliferative phenotype
effect on proliferative rate in control cells [2]: without affecting the proliferative rate

C#Cc1cccc(Nc2ncnc3cc(OCCOC)c(OCCOC)cc23)c1 [erlotinib]
inhibition of proliferation of cancer cells (DNA content) ([1]; single treatment 1 μM, 3D Matrigel): partially inhibited; also recorded: reduced cell proliferation

O=c1c(-c2ccc(O)cc2)coc2cc(O)cc(O)c12 [genistein]
effect on MT4-MMP-mediated mitogenic effect (cell proliferation, DNA content) [1]: strongly inhibited

B1: K4H7: human scFv antibody that specifically binds and neutralizes MT4-MMP; VH SEQ ID NO: 26, VL SEQ ID NO: 27, complete scFv SEQ ID NO: 28 (protein)
scFv: QVQLVQSGGGLVKPGRSLRLSCTASGFTFGDYAMSWFRQAPGKGLEWVGFIRSKAYGGTTEYAASVKGRFTISRDDSKSIAYLQMNSLKTEDTAVYYCTRGSSGWFLNWFDPWGQGTLVTVSSLEGGGGSGGGGSGGGGSELETTLTQSPATLSLSPGERATLSCRASQSISSSYLAWYQHKPGQAPRLLIYGASRRATGIPDRFSGSGSGTDFSLTISRLEPEDFAVYYCLHYGSSKWTFGQGTKVEIKR
inhibition of MT4-MMP enzymatic activity (neutralizing capacity) [3]: able to inhibit; also recorded: inhibited completely
recognition of MMP2 (MMP2): do not recognize
recognition of MT4-MMP E249A mutant [4]: recognized specifically
recognition of wild type recombinant MT4-MMP [5]: recognized specifically
recognition of MT1-MMP (MMP14) (MT1-MMP (MMP14)): do not recognize
affinity / capacity to bind recombinant MT4-MMP, compared among the three scFV clones [6]: highest capacity to bind; also recorded: highest affinity
recognition of MT3-MMP (MMP16) (MT3-MMP (MMP16)): do not recognize
reduction of cell proliferation (DNA content) ([1]; single treatment 20 μg/ml, 3D Matrigel): reduced cell proliferation
binding to inactive MT4-MMP (E249A) [7]: binds specifically
binding to wild-type MT4-MMP [8]: binds specifically
